Reference: US20230073007A1 (OPTOLANE TECHNOLOGIES, published 2023)
No end group written: not given here.

T1: CRP (UniProt P02741 19-224)
T1 construct: also called antigen CRP
T1 sequence (looked up): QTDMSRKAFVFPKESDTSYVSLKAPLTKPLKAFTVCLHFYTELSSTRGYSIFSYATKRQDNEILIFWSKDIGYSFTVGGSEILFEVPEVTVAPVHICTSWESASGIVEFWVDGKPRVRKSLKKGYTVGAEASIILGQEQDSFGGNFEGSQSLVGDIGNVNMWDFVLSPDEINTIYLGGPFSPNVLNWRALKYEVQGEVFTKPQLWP

B1: switching binder of SEQ ID NO. 3 (L1) (peptide)
peptide: TYLEWYPQKPGQSPKLLIYK
modifications: also: fluorescence label in fluorescence assays, dye and place not given here
notes: also called PEPTIDE 3
B2: switching binder of SEQ ID NO. 2 (H2) (peptide)
peptide: VYYCAREPTGTGIYFDVWGK
modifications: also: fluorescence label in fluorescence assays, dye and place not given here
notes: also called PEPTIDE 2
B3: switching binder of SEQ ID NO. 4 (L2) (peptide)
peptide: VYYCFQGSHVPFTK
modifications: also: fluorescence label in fluorescence assays, dye and place not given here
notes: also called PEPTIDE 4

Columns and labels:
[1] = target: B2; assay: FRET between the labelled peptides L1 and H2, L1 peptide concentration varied (linear axis, 0-10 µM)
anti-HRP antibody [2] = target: T2, anti-HRP antibody; assay: SPR, anti-HRP antibody immobilized on gold chip, peptide at 20 µM
T2 construct: also called anti-HRP antibody 10
Description: (§1) Carbodiimide/N-Hydroxysuccinimide (EDC/NHS, 0.4 M/0.1 M) was mixed in a 1:1 ratio and treated for 10 minutes to activate functional groups. […] Thereafter, it was used after blocking with an ethanolamine concentration of 1 M for 10 minutes. All of the switching binders 100 were treated by incubation for 30 minutes using two concentrations of 10 and 20 μM, respectively. The SPR signal can be measured as an average value by repeating the routine of measuring the SPR signal for 3 minutes while the solution is stopped after flowing 1% Tween-20 washing solution for 1 minute three times.

[3] = target: T3, antibody 10 immobilized by the support 30 (FIG. 7A; antibody not identified); assay: fluorescence of labelled peptide on an antibody fixed on a support, peptide concentration varied (log axis, 0.1-100 µM)
T3 construct: also called the antibody 10

anti-HBsAg antibody = assay: fluorescence of labelled peptide (20 µM) on anti-HBsAg antibody fixed on a solid support, before (A) and after (B) HBsAg 10 µg/ml; C = fluorescence in the solution
anti-HRP antibody [4] = target: T2, anti-HRP antibody; assay: fluorescence of labelled peptide (10 µM) on anti-HRP antibody fixed on a solid support, before (A) and after (B) HRP 10 µg/ml; C = fluorescence in the solution
Description: (§2) 1 to 4 were each treated at a concentration of 10 μM (100 μl/well) for 2 hours. At this time, after measuring the fluorescence of the bottom, the antigen HRP as an analyte for an IgG antibody of rabbit was treated at a concentration of 10 μg/ml for 1 hour. […] 1 to 4 were each treated at a concentration of 20 μM (100 μl/well) for 2 hours. At this time, after measuring the fluorescence of the bottom, the antigen HCG as an analyte for an IgG antibody of a mouse was treated at a concentration of 100 μg/ml for 2 hours.

[5] = target: T3, antibody 10 immobilized by the support …; assay: fluorescence of labeled peptide vs peptide concentration on immobilized antibody (FIG. 7A)
anti-CRP antibody = assay: fluorescence of labelled peptide (20 µM) on anti-CRP antibody fixed on a solid support, before (A) and after (B) antigen 10 µg/ml (CRP by paragraph 170; paragraph 172 writes HRP); C = fluorescence in the solution
Description: 1 to 4 were each treated at a concentration of 20 μM (100 μl/well) for 2 hours. At this time, after measuring the fluorescence of the bottom (A), the antigen HRP as an analyte for an IgG antibody of rabbit was treated at a concentration of 10 μg/ml for 1 hour. […] 1 to 4 were each treated at a concentration of 20 μM (100 μl/well) for 2 hours. At this time, after measuring the fluorescence of the bottom (A), the antigen HBsAg as an analyte for an IgG antibody of a goat was treated at a concentration of 10 μg/ml for 1 hour.

CRP = target: T1, CRP; assay: fluorescence of labelled peptide (20 µM) on protein coated at 100 µg/mL on a solid support
protein A = protein A (UniProt P38507 37-477); assay: as above
anti-HRP antibody [6] = target: T2, anti-HRP antibody; assay: SPR, anti-HRP antibody immobilized on gold chip, peptide at 10 µM
Description: as §1

[7] = target: B3; assay: FRET between the labelled peptides H1 and L2, H1 peptide concentration varied (linear axis, 0-10 µM)
anti-hCG antibody = assay: fluorescence of labelled peptide (20 µM) on anti-hCG antibody fixed on a solid support, before (A) and after (B) hCG 100 µg/ml; C = fluorescence in the solution
Description: as §2

[8] = target: B1; assay: FRET between the two peptides (FIG. 5E)

Binder	binding result [1]	SPR signal (anti-HRP antibody [2])	EC50 (read off the curve) [3]	percent printed over the arrow from bar A to bar B (residual bound peptide after antigen; agrees with B as percent of A) (anti-HBsAg antibody)	percent printed over the arrow from bar A to bar B (residual bound peptide after antigen; agrees with B as percent of A) (anti-HRP antibody [4])	Kd [5]	percent printed over the arrow from bar A to bar B (residual bound peptide after antigen; agrees with B as percent of A) (anti-CRP antibody)	binding result (CRP)	binding result (protein A)	SPR signal (anti-HRP antibody [6])	binding result [7]	percent printed over the arrow from bar A to bar B (residual bound peptide after antigen; agrees with B as percent of A) (anti-hCG antibody)	binding result [8]
B1	binds	40.4 RU	~6 µM	51.4%	12.8%	6.62 µM	51.4%	no binding (tested: 20 µM)	no binding (tested: 20 µM)	25.3 RU	–	–	–
SYWIHWVKQRPGQGLEWIGE (also: fluorescence label in fluorescence assays, dye and place not given here, also called PEPTIDE 1) [switching binder of SEQ ID NO. 1 (H1)]	–	121 RU	–	73.2%	12.3%	1.42 µM	73.2%	no binding (tested: 20 µM)	no binding (tested: 20 µM)	34.4 RU	binds	34.4%	–
B2	–	192 RU	–	60.5%	14.8%	19.4 µM	60.5%	no binding (tested: 20 µM)	–	51.5 RU	–	11.5%	binds
B3	–	418 RU	–	55.1%	25.5%	6.68 µM	55.1%	no binding (tested: 20 µM)	no binding (tested: 20 µM)	125 RU	–	9.3%	–
